Measured values: patent publication US20240207405A1, “IL2 TETHERED TO ITS RECEPTOR IL2RBETA AND PORE-FORMING PROTEINS AS A PLATFORM TO ENHANCE IMMUNE CELL ACTIVITY” (The General Hospital Corporation, priority 2021, published 2024)

Experiments:
NK92^CIRB21-icasp9 cells = test: Killing of icasp9-expressing NK92 cells by dimerizer drug AP1093; type: cell-based, human
Protocol: (§1) L-Holin killing assays—Cells selected cell for L-Holin were tested in a 24 well plate using 32,000 cells per well. 24 hours later doxycycline was added at 1 μg/ml for 4-5 days. Cells selected for icasp9 were tested in a 24 well plate using 32,000 cells per well. 24 hours later dimerizer drug AP1093 was added at 2 or 10 nM for 4-5 days. Surviving cells were quantified using crustal violet assay as described in (Jounaidi et al, Cancer Research 2017).
Next, we examined whether high doses of AP1093 could completely kill NK92^CIRB21−icasp9 cells.

NK92^CIRB cells [1] = test: Growth of NK92^CIRB cells in the presence of lactate dehydrogenase inhibitor R-GNE140 (cell count); type: cell-based, human; settings: total cell count, FIG. 11, read-out: IC50 of R-GNE140 for inhibiting growth of NK92^CIRB cells
Protocol: (§2) The ability of NK92^CIRB and NK92^CIRB21 cells to grow in the presence of the lactate dehydrogenase inhibitor R-GNE140 was tested. Cells were incubated with increasing concentrations of R-GNE140 and total number of cells were counted.

NK92^CIRB21 cells [2] = test: Growth of NK92^CIRB21 cells in the presence of lactate dehydrogenase inhibitor R-GNE140 (cell count); type: cell-based, human; settings: total cell count, FIG. 11, read-out: IC50 of R-GNE140 for inhibiting growth of NK92^CIRB21 cells
Protocol: as §2

[3] = cited from earlier work
PC-3 cells = type: cell-based, human
Excerpt: Interleukins IL4, IL7, IL9, IL15 and IL21 belong to the same family as IL2, and use the same common IL2Rg. They all have their own private receptors, except for IL2 and IL15, which use IL2Rβ in addition to their own alpha receptors. […] Thus the entire cytoplasmic domain of IL21R was cloned then added Head-to-Tail to the C-terminal of IL2Rβ in the chimera CIRB. […] As shown herein, it was possible to emulate the activation signals from multiple cytokines that activate NK cells via different receptors by using only one ligand and a hybrid receptor.

glioblastoma GL261 cells = test: L-Holin killing assay in GL261 clones (doxycycline induction, crystal violet); type: cell-based, mouse
Protocol: L-Holin GL261 and icasp9 GL261 clones were selected as single cells by extreme dilution in 96 well plates. Clones were grown and evaluated for their response to dox (L-Holin) or AP1093 (icasp9).
as §1
Mouse glioblastoma cell line GL261 was infected by a retrovirus expressing L-Holin. Clones were selected, L-Holin expression was induced with doxycycline, and cell viability was determined. Four clones were tested: 2 clones with high expression levels of L-Holin (Clone 1, Clone 5) and 2 clones with low expression levels of L-Holin (Clone 6, Clone 9).
We compared the ability of L-Holin to trigger cell death to that of icasp9 in GL261 cells. GL261 cells were infected by a retrovirus expressing L-Holin or a retrovirus expressing icasp9. Clones were selected, L-Holin expression was induced with doxycycline, and cell viability was determined. […]

NK92^CIRB21 cells [4] = test: L-Holin killing of NK92^CIRB21 cells (doxycycline induction, cell count); type: cell-based, human; settings: NK92^CIRB21 cells expressing L-Holin, total cell count, FIG. 5B / FIG. 12
Protocol: NK92^CIRB21 pool selection—NK92^CIRB21 cells expressing L-Holin were selected with puromycin and NK92^CIRB21 cells expressing icasp9 and GFP were sorted by flow cytometry for GFP.
as §1
Mouse glioblastoma cell line GL261 was infected by a retrovirus expressing L-Holin. Clones were selected, L-Holin expression was induced with doxycycline, and cell viability was determined. […]
Expression of L-Holin in NK92^CIRB21+Holin cells was induced with doxycycline. Total number of cells were counted after doxycycline treatment. […] After 13 days of growth in the absence of doxycycline, total number of cells were counted. Untreated cells were counted as a control.
The ability of L-holin to trigger death of NK92^CIRB cells and NK92^CIRB21 cells was tested. […] Total number of cells were counted after 13 days of growth in the absence of doxycycline. Untreated cells were counted as a control. […]

NK92^CIRB cells [5] = test: L-holin killing of NK92^CIRB cells (doxycycline induction, cell count); type: cell-based, human; settings: total cell count, FIG. 12
Protocol: The ability of L-holin to trigger death of NK92^CIRB cells and NK92^CIRB21 cells was tested. L-bolin expression was induced in NK92^CIRB cells and NK92^CIRB21 cells with doxycycline. Cells were washed to remove doxycycline and then cells were cultured for 13 days. Total number of cells were counted after 13 days of growth in the absence of doxycycline. Untreated cells were counted as a control. […] This sensitivity is consistent with the reliance of NK92^CIRB21 cells on mitochondria, which are lysed by L-holin during cell killing.

CC[C@H](C(=O)N1CCCC[C@H]1C(=O)O[C@H](CCc1ccc(OC)c(OC)c1)c1cccc(OCC(=O)NCCNC(=O)COc2cccc([C@@H](CCc3ccc(OC)c(OC)c3)OC(=O)[C@@H]3CCCCN3C(=O)[C@@H](CC)c3cc(OC)c(OC)c(OC)c3)c2)c1)c1cc(OC)c(OC)c(OC)c1 [AP1093]
viability of NK92^CIRB21-icasp9 cells in the presence of AP1093 (NK92^CIRB21-icasp9 cells; 10 nM AP1093, FIG. 9A): remained viable | viability of NK92 cells expressing GFP and icasp9 in AP1093 (NK92^CIRB21-icasp9 cells; 10 nM AP1093, after 5 days, GFP detection by immunofluorescence, FIG. 9B): viable in 10 nM of AP1093 even after 5 days

O=C1N[C@](c2ccc(N3CCOCC3)cc2)(c2ccsc2)CC(O)=C1Sc1ccccc1Cl [R-GNE140]
IC50 (NK92^CIRB cells [1]): 4.7 µM | IC50 (NK92^CIRB21 cells [2]): 10.6 µM

IL2: immunostimulatory cytokine
half-life of IL2 in vivo [3]: less than 10 min

IL21: soluble interleukin of the IL2 family added to NK92^CIRB cells
effect of soluble interleukin on cytotoxicity of NK92^CIRB against PC-3 cells (PC-3 cells): dramatically enhance cytotoxicity

B1: L-Holin: pore-forming holin protein from bacteriophage, SEQ ID NO: 1, expressed under a tetracycline regulated promoter (protein)
chain: MPEKHDLLAAILAAKEQGIGAILAFAMAYLRGRYNGGAFTKTVIDATMCAIIAWFIRDLLDFAGLSSNLAYITSVFIGYIGTDSIGSLIKRFAAKKAGVEDGRNQ
modifications: Enterobacteriaceae
triggering of cell death compared with icasp9 expressed at low levels (glioblastoma GL261 cells; GL261 cells, icasp9 Clone 2, 2 nM or 10 nM AP1903, FIGS. 7A-7B): more effective at triggering cell death than icasp9 expressed at low levels | cell death as a result of L-Holin expression (glioblastoma GL261 cells; GL261 clones with high (1, 5) and low (6, 9) L-Holin expression, doxycycline induced, FIG. 5A): majority, if not all, of GL261 cells died | detectable cells after L-Holin induction and 13 days of growth in the absence of doxycycline (NK92^CIRB21 cells [4]): remained undetectable | detectable cells after L-Holin induction and 13 days of growth in the absence of doxycycline (NK92^CIRB21 cells [4]; listed as L-holin): undetectable | detectable cells after L-Holin induction and 13 days of growth in the absence of doxycycline (NK92^CIRB cells [5]): some NK92^CIRB cells survived and were detectable
